{"source": "paper PMC5775292", "about": "“Comprehensive reduction of amino acid set in a protein suggests the importance of prebiotic amino acids for stable proteins” (Scientific Reports, 2018)", "proteins": {"B1": {"name": "Bacillus subtilis nucleoside diphosphate kinase (enzyme, UniProt P31103 1-149, looked up)", "chain": "MMEKTFIMVKPDGVQRQLIGDILSRFERKGLQLAGAKLMRVTEQMAEKHYAEHQGKPFFGELVEFITSGPVFAMVWEGENVIEVTRQLIGKTNPKEALPGTIRGDYGMFVGKNIIHGSDSLESAEREINIFFKNEELVSYQQLMAGWIY", "notes": "nucleoside diphosphate kinase, Bacillus subtilis; construct not described; also called B. subtilis NDK; extant mesophilic NDK"}}, "target": "the molecule itself", "experiment": "SEC; analytical gel filtration, Superdex 200 (1.0 x 30 cm), 20 mM potassium phosphate pH 6.0, 150 mM KCl, 1 mM EDTA; initial protein concentration 20 uM, 0.2 ml loaded, 0.5 ml/min; apparent molar mass from a calibration curve"}
{"protein": "B1", "values": [{"measurement": "stoichiometry N", "value": 6}]}
